Measurements taken from PMC7669869 (2020).

B1: AdipoR2 (overexpressed in HEK293 cells) (receptor)
chain: MNEPTENRLGCSRTPEPDIRLRKGHQLDGTRRGDNDSHQGDLEPILEASVLSSHHKKSSEEHEYSDEAPQEDEGFMGMSPLLQAHHAMEKMEEFVCKVWEGRWRVIPHDVLPDWLKDNDFLLHGHRPPMPSFRACFKSIFRIHTETGNIWTHLLGCVFFLCLGIFYMFRPNISFVAPLQEKVVFGLFFLGAILCLSFSWLFHTVYCHSEGVSRLFSKLDYSGIALLIMGSFVPWLYYSFYCNPQPCFIYLIVICVLGIAAIIVSQWDMFATPQYRGVRAGVFLGLGLSGIIPTLHYVISEGFLKAATIGQIGWLMLMASLYITGAALYAARIPERFFPGKCDIWFHSHQLFHIFVVAGAFVHFHGVSNLQEFRFMIGGGCSEEDAL
B2: AdipoR1 (overexpressed in HEK293 cells) (receptor)
chain: MSSHKGSVVAQGNGAPASNREADTVELAELGPLLEEKGKRVIANPPKAEEEQTCPVPQEEEEEVRVLTLPLQAHHAMEKMEEFVYKVWEGRWRVIPYDVLPDWLKDNDYLLHGHRPPMPSFRACFKSIFRIHTETGNIWTHLLGFVLFLFLGILTMLRPNMYFMAPLQEKVVFGMFFLGAVLCLSFSWLFHTVYCHSEKVSRTFSKLDYSGIALLIMGSFVPWLYYSFYCSPQPRLIYLSIVCVLGISAIIVAQWDRFATPKHRQTRAGVFLGLGLSGVVPTMHFTIAEGFVKATTVGQMGWFFLMAVMYITGAGLYAARIPERFFPGKFDIWFQSHQIFHVLVVAAAFVHFYGVSNLQEFRYGLEGGCTDDTLL

What was measured:
[1] = target: JT006 (UniProt Q15848 155-161, Tyr159 was replaced with Ser | Asp was applied to substitute Ala161, unnatural amino acid Nva incorporated (position not given); FITC labeled peptide in the cell imaging); test: FRET; table row labelled IC50, legend says Kd
[2] = target: ADP355; test: FRET; table row labelled IC50, legend says Kd

Row | Binder | Kd [1] [nM] | Kd [2] [nM]
1 | B1 | 1200 | –
2 | B2 | 1400 | 1100
